Laboratory results taken from patent publication US20250340623A1 (AC IMMUNE, published 2025).

Legend:
alpha-synuclein fibrils [1] = target: T1, alpha-synuclein fibrils (UniProt P37840 1-140); assay: SPR, captured mAb
Experimental: (§1) Non-covalent immobilization of alpha-synuclein antibodies was performed using a target immobilization method of 2000 response units (RU). Antibodies were diluted in 10 mM sodium acetate pH 5.5 (GE Healthcare, BR-1003-52) to a final concentration of 5 μg/mL.
(§2) Binding affinity of alpha-synuclein antibodies to monomeric or fibrillar alpha-synuclein species was performed using a single-cycle kinetics method. The instrument was primed with 1×HBS-P+ buffer (10× stock from GE Healthcare, BR-1003-52 diluted in Milli-Q water). Injections of monomeric alpha-synuclein (aSyn) (Boston Biochem, SP-485), increasing in concentration from 0.62-50 nM prepared from serial 2-fold dilutions, were performed with contact times of 300 sec/injection at a flow rate of 30 μL/min. A dissociation phase of 900 sec followed the final 50 nM injection. Regeneration of the sensor to the goat anti-mouse antibody layer was achieved using 3 regenerations of 10 mM Glycine pH 1.7. […] Regeneration of the sensor to the goat anti-mouse antibody layer was achieved using 3 regenerations of 10 mM Glycine pH 1.7. Results obtained from single-cycle kinetics were evaluated by Biacore T200 evaluation software with 1:1 binding homogenous Langmuir model (with a global Rmax) with Cycle 5 as a blank subtraction. The following kinetic parameters were obtained: on-rate (ka), off-rate (kd), affinity constant (KD, ratio of kd by ka), maximum response (Rmax), and goodness of fit (Chi2).
(§3) Non-covalent capture of the alpha-synuclein antibodies was performed in three separate runs.

[2] = target: T2, monomeric alpha-synuclein (UniProt P37840 1-140); assay: SPR, captured mAb
Experimental: as §1, §2, §3

alpha-synuclein fibrils [3] = target: T1, alpha-synuclein fibrils; assay: SPR, captured bAb; head says nM, kd/ka gives M
Experimental: (§4) Any non-covalently bound antibodies were removed by three successive regenerations of 10 mM Glycine pH 1.7 (GE Healthcare, 28-9950-84). Immobilization levels were evaluated following ethanolamine capping (Bound) and finally following regeneration (Final). Non-covalent immobilization of alpha-synuclein biparatopic antibodies on flow cell 2 of channels 1-8 was performed at a final concentration of 5 μg/mL, diluted in 10 mM sodium acetate pH 5.5 (GE Healthcare, BR-1003-52). Non-covalent immobilization of an isotype control antibody on flow cell 1 of channels 1-8 was performed at a final concentration of 5 μg/mL, diluted in 10 mM sodium acetate pH 5.5 (GE Healthcare, BR-1003-52).
(§5) Binding affinity of alpha-synuclein biparatopic antibodies to monomeric or fibrillar alpha-synuclein species was performed using a single-cycle kinetics method. The instrument was primed with 1×HBS-P+ buffer (10× stock from GE Healthcare, BR-1003-52 diluted in Milli-Q water). Injections of monomeric alpha-synuclein (Boston Biochem, SP-485), increasing in concentration from 0.62-50 nM prepared from serial 2-fold dilutions, were performed with contact times of 300 sec/injection at a flow rate of 30 μL/min. A dissociation phase of 900 sec followed the final 50 nM injection. Regeneration of the sensor to the goat anti-human antibody layer was achieved using 3 regenerations of 10 mM Glycine pH 1.7. […] Regeneration of the sensor to the goat anti-mouse antibody layer was achieved using 3 regenerations of 10 mM Glycine pH 1.7. Results obtained from single-cycle kinetics were evaluated by Biacore 8K evaluation software with 1:1 binding homogenous Langmuir model with a preceeding buffer injection as a blank subtraction. The following kinetic parameters were obtained: on-rate (ka), off-rate (kd), affinity constant (KD, ratio of kd by ka), maximum response (Rmax), and goodness of fit (Chi2).
(§6) Kinetic constants were determined from 1:1 homogenous binding models for all cases.

[4] = target: T2, monomeric alpha-synuclein; assay: SPR, captured bAb; head says nM, kd/ka gives M
Experimental: as §4, §5, §6

alpha-synuclein fibrils [5] = target: T1, alpha-synuclein fibrils; assay: SPR, captured bAb
Experimental: as §4, §5, §6

[6] = target: T2, monomeric alpha-synuclein; assay: SPR, captured bAb
Experimental: as §4, §5, §6

| Binder | Kd (alpha-synuclein fibrils [1]) | koff (alpha-synuclein fibrils [1]) | kon (alpha-synuclein fibrils [1]) | Kd [2] | koff [2] | kon [2] | Kd (alpha-synuclein fibrils [3]) | Kd [4] | koff (alpha-synuclein fibrils [5]) | kon (alpha-synuclein fibrils [5]) | koff [6] | kon [6] |
| --- | --- | --- | --- | --- | --- | --- | --- | --- | --- | --- | --- | --- |
| ACI-8033-6403A4-Ab1 (antibody, V domains shown, mouse hybridoma mAb; VH/VL only; also called 6403A4A3) VH: EVQLVESGGGLVQPKGSLKLSCAASGFSFNTYAMNWVRQAPGKGLEWVARIRSKSNNYTTYYADSVKDRFTISRDDSESMLYLQMNNLKTEDTAMYYCVRTMDYWGQGTSVTVSS VL: QIVLTQSPAIMSASLGEEITLTCSASSSISYMHWYQQKSGTSPKLLIHSTFNLASGVPSRFSGSGSGTFYSLTISSVEAEDAADYYCHQWSSYYTFGGGTKLEIK | 37.9 nM | 0.000599 s⁻¹ | 15800 M⁻¹ s⁻¹ | 96.4 nM | 0.044 s⁻¹ | 457000 M⁻¹ s⁻¹ | – | – | – | – | – | – |
| ACI-8030-6106F5-Ab1 (antibody, V domains shown, mouse hybridoma mAb; VH/VL only; also called 6106F5B10) VH: QVQLQQSGPELVKPGASVKISCKASGYSFTTYYIHWMKQRPGQGPEWIGWIYPGRGYTKYNEKFKDKAAQTADTSSNTAYMQLSSLRSEDSAVYYCARDWETGFPYWGQGTLVTVSA VL: DIVLTQSPASLAVSLGQRATISCKASQSVDYGGDSWLNWYQQKPGQPPKLLIYAASNLDSGIPARFGGSGSGTDFTLNIHPVEEEDAATYYCQQSGEDPFTFGGGTNLEIK | 16.7 nM | 0.000232 s⁻¹ | 13900 M⁻¹ s⁻¹ | 1.95 nM | 0.00023 s⁻¹ | 118000 M⁻¹ s⁻¹ | – | – | – | – | – | – |
| ACI-8032-6304F3-Ab1 (antibody, V domains shown, mouse hybridoma mAb; VH/VL only; also called 6304F3D12) VH: QVQLQQSGAELARPGASVKLSCKASGYTFTSYGVSWVKQRTGQGLEWIGEIYPRSGNTYYNEKFKGKATLTADKSSSTAYMELRSLTSEDSAVYFCASESYYGDYDWYFDVWGTGTTVTVSS VL: DVLMTQIPLSLPVSPGDQVSISCRSSQSIVHSNGNTYLEWYLQKPGQSPKPLIYKVSNRFSGVPDRFSGSGSGTDFTLKISRVEAEDLGVYYCFQGSHVPPTFGGGTKLEIK | 40.6 nM | 0.000527 s⁻¹ | 13000 M⁻¹ s⁻¹ | 4.75 nM | 0.016 s⁻¹ | 3.37e+06 M⁻¹ s⁻¹ | – | – | – | – | – | – |
| ACI-8032-6307F1-Ab2 (antibody, V domains shown, mouse hybridoma mAb; VH/VL only; also called 6307F1H10) VH: QVQLQQSGAELARPGASVKLSCKASGYTFTSYGMSWVKQRTGQGLEWIGEIYPRSGNTYYNEKFKGKATLTSDKSSSTSYMELRSLTSEDSAVYFCASESYYGDYAWYFDVWGTGTTVTVSS VL: DVLMTQTPLSLPVSLGDQASISCRSSQSVVHSNGITYLEWYLQKPGQSPKLLIYKVSNRFSGVPDRFSGSGSGTYFTLKISRVEAEDLGVYYCFQGSHVPPTFGGGTKLEIK | 26 nM | 0.000691 s⁻¹ | 26500 M⁻¹ s⁻¹ | 19 nM | 0.0248 s⁻¹ | 1.3e+06 M⁻¹ s⁻¹ | – | – | – | – | – | – |
| ACI-8032-6301C8-Ab2 (antibody, V domains shown, mouse hybridoma mAb; VH/VL only; also called 6301C8G12) VH: QVQLQQSGAELARPGTSVKLSCKASGYTFTTYGISWVKQRTGQGLEWIGEIYPRSGNTYYNEKFKGKATLTADKPSSTAYMELRSLTSEDSAVYFCASESYYGDYAWYFDVWGTGTTVTVSS VL: DVLMTQIPLSLPVSLGDQASISCRSSQSIVHSNGNTYLEWHLQKPGQSPKLLIYEVSNRFSGVPDRFSGSGSGTDFTLNISRVEAEDLGVYYCFQGSHVPPTFGGGTKLEIK | 42.8 nM | 0.00355 s⁻¹ | 83000 M⁻¹ s⁻¹ | 8.76 nM | 0.00329 s⁻¹ | 376000 M⁻¹ s⁻¹ | – | – | – | – | – | – |
| ACI-8032-6314A3-Ab3 (antibody, V domains shown, mouse hybridoma mAb; VH/VL only; also called 6314A3E4) VH: QVQLQQSGAELARPGASVKLSCKASGYTFTSYGVSWVKQRTGQGLEWIGEIYPRSGNTYYNEKFKGKATLTADKSSSTAYMELRSLTSEDSAVYFCASESYYGDYDWYFDVWGTGTTVTVSS VL: DVLMTQIPLSLPVSPGDQVFISCRSSQSIVHSNGNTYLEWYLQKPGQSPKPLIYKVSNRFSGVPDRFSGSGSGTDFTLKISRVEAEDLGVYYCFQGSHVPPTFGGGTKLEIK | 41.5 nM | 0.000325 s⁻¹ | 7830 M⁻¹ s⁻¹ | 16.7 nM | 0.0382 s⁻¹ | 2.28e+06 M⁻¹ s⁻¹ | – | – | – | – | – | – |
| ACI-8032-6301A10-Ab2 (antibody, V domains shown, mouse hybridoma mAb; VH/VL only; also called 6301A10E12) VH: QVQLQQSGAELARPGASVKLSCKASGYTFTSYGISWVKQRTGQGLEWIGEIYPRSGNTYYNEKFKGKATLTADKSSSTAYMELRSLTSEDSAVYFCASESYYGDYDWYFDVWGTGTTVTVSS VL: DVLMTQTPLSLPVSLGDQASISCRSSHSIEHSNGNTYLEWCLQKPGQPPKFLIYKVSNRFSGVPDRFSGSGSGTDFTLRISRVEAEDLGVYYCFQGSHVPPTFGGGTKLEIK | 2.69 nM | 0.000193 s⁻¹ | 71800 M⁻¹ s⁻¹ | 11.5 nM | 0.00517 s⁻¹ | 450000 M⁻¹ s⁻¹ | – | – | – | – | – | – |
| ACI-8031-6207G10-Ab1 (antibody, V domains shown, mouse hybridoma mAb; VH/VL only; also called 6207G10E6) VH: QVQLQQSGAELVKPGASVKISCKASGYAFSSYWMNWVKQRPGKGLEWIGQIYPGDGDTNYNGKFKGKATLTADRSSSTAYMQLSSLTSEDSAVYFCAITHYDYWGQGTTLTVSS VL: DILLTQSPAILSVSPGDRVSFSCRASQSIGTRIHWYQQRTNGSPRLLIKYASESISGTPSRFSGSGSGTDFTLSINSVESEDIADYYCQQSNSWPLTFGAGTKLELK | 13.3 nM | 0.00015 s⁻¹ | 11300 M⁻¹ s⁻¹ | 3.67 nM | 0.000314 s⁻¹ | 85300 M⁻¹ s⁻¹ | – | – | – | – | – | – |
| ACI-7079-3112H1-Ab1 (antibody, V domains shown, mouse hybridoma mAb; VH/VL only; also called 3112H1F3) VH: EVQLQQSGPELVKPGASVKISCKASGYTFSDYFMNWVKQSHGKSLEWIGDINPNNGGSSYIQKFKGKATLTVDKSSTTAYMELRSLTSEDSAVYYCARGSNYAMDSWGQGTSVTVSS VL: DIVMSQSPSSLAVSAGEKVTMSCKSSQSLLNSRTRKNYLAWYQQKPGQSPKLLIYWASTRESGVPDRFTGSGSGTDFTLTISSVQAEDLAVYYCKQSYDLWTFGGGTKLEIK | 19.3 nM | 0.000216 s⁻¹ | 11200 M⁻¹ s⁻¹ | 10.5 nM | 0.00225 s⁻¹ | 214000 M⁻¹ s⁻¹ | – | – | – | – | – | – |
| ACI-3108C10_3112H1 (bispecific antibody, V domains shown, biparatopic; Arm A ACI-7079-3108C10-Ab2, Arm B ACI-7079-3112H1-Ab1; engineered constant domains not specified) VH 1: ELQLVESGGGLVRPGGSLKLSCATSGFTFRNYAMSWVRQTPAKRLEWVATISDGGTYTFYSDNVKGRFTISRDNVKNTLYLQMSHLKSEDTAMYYCSRAGSGHWGQGTTLTVSS VL 1: not shown VH 2: EVQLQQSGPELVKPGASVKISCKASGYTFSDYFMNWVKQSHGKSLEWIGDINPNNGGSSYIQKFKGKATLTVDKSSTTAYMELRSLTSEDSAVYYCARGSNYAMDSWGQGTSVTVSS VL 2: DIVMSQSPSSLAVSAGEKVTMSCKSSQSLLNSRTRKNYLAWYQQKPGQSPKLLIYWASTRESGVPDRFTGSGSGTDFTLTISSVQAEDLAVYYCKQSYDLWTFGGGTKLEIK | – | – | – | – | – | – | 23.4 nM | 10100 nM | 0.000315 s⁻¹ | 13500 M⁻¹ s⁻¹ | 0.023 s⁻¹ | 2280 M⁻¹ s⁻¹ |
| ACI-8033-6402E2-Ab2 (antibody, V domains shown, mouse hybridoma mAb; VH/VL only; also called 6402E2E4) VH: EVQLQHSGPDLVKPGASVKISCKASGYTFTDYYMNWVKQSHGKSLEWIGDINPNNGDTTYNQKFKGRATLTVDKSSSTAYMELRSLTSEDSAVYYCARSGSNYYAMDSWGQGTSVTVSS VL: DIVMSQSPSSLAVSAGERVTMSCKSSQSLFNSRTRKNYLAWYQQKPGQSPKLLIYWASTRESGVPDRFTGSGSGTDFSLNISSVQAEDLAVYYCKQSYDLWTFGGGTKLEIK | 134 nM | 0.000987 s⁻¹ | 7350 M⁻¹ s⁻¹ | 3.26 nM | 0.000651 s⁻¹ | 200000 M⁻¹ s⁻¹ | – | – | – | – | – | – |
| ACI-8032-6301G2-Ab2 (antibody, V domains shown, mouse hybridoma mAb; VH/VL only; also called 6301G2D11) VH: EVQLQQSGPELVKPGASVKISCKASGYTFTDYFMNWVKQSHGKSLEWIGDINPNIGVTNYNPKFKDRATLTVDKSSSSAYMELRSLTSEDSTVYYCARGGGSNPLYYAMDYWGQGTSVTVSS VL: DIVMSQSPSSLAVSAGEKVTMSCKSSQSLLNSRTRKNYLAWYQQKPGQSPKLLIYWASTRESGVPDRFTGSGSGTDFTLTISSVQAEDLAVYFCKQSYDLWTFGGGTKLEIK | 3350 nM | 0.000353 s⁻¹ | – | 606 nM | 0.000237 s⁻¹ | 390 M⁻¹ s⁻¹ | – | – | – | – | – | – |
